Kd data for 2 substances are collected here from paper PMC11739670.

Test [1] addresses MHCI-related protein 1 (MR1) with β2m, loaded with 6-formylpterin (human) (UniProt Q95460). In words: SPR; BIAcore T200, CM5 chip with streptavidin; biotinylated pMHCI, MR1 or CD1 captured; serial dilution of CD8-Fc fusion injected; 25°C, PBS with 0.005% Tween 20; steady-state responses, 1:1 Langmuir fit.
Test [2] addresses MHCI-related protein 1 (MR1) with β2m, loaded with 5-(2-oxopropylideneamino)-6-d-ribitylaminouracil (human) (UniProt Q95460). The test is described as above.
For test [3], the target named is MHCI-related protein 1 (MR1) with β2m, loaded with 5-formyl salicylic acid (human) (UniProt Q95460). Described as above.
Test [4] deals with MHCI-related protein 1 (MR1) with β-2 microglobulin, biotinylated, loaded with model ligands (UniProt Q95460). Put plainly: SPR; biotinylated ligands (pMHCI, MR1, CD1) captured on streptavidin coupled to a CM5 chip; serial dilution of each CD8-Fc fusion injected; steady-state responses, 1:1 Langmuir fit; BIAcore T200, 25°C, PBS with 0.005% Tween 20. On the technique in general: SPR reads the build-up and loss of mass on a sensor chip optically.

In test [5] the target is HLA-A*03:01 with peptide […]. In words: SPR.
Test [6] has as its target HLA-A*24:02 peptide-MHC class I (biotinylated pMHCI). Put plainly: SPR; biotinylated ligands (pMHCI, MR1, CD1) captured on streptavidin coupled to a CM5 chip; serial dilution of each CD8-Fc fusion injected; steady-state responses, 1:1 Langmuir fit; BIAcore T200, 25°C, PBS with 0.005% Tween 20.

Several values for one entry are separate records, joined by “and”; a condition that tells them apart may be missing. Identical values can stand only once.

For orientation: Kd means a measure of binding affinity in units of concentration. A low value points to a tighter complex. Turning to “soluble human CD8αα-Fc homodimer (from UniProt P01732 22-182) (Fc fusion)”, the Kd in test [1] is 248 µM and 280 µM; in test [2], 248 µM and 274 µM; in test [3] it was 222 µM and 236 µM; in test [4], 250 µM.
On to “soluble human CD8αβ-Fc heterodimer (from UniProt P01732 22-182; P10966 22-170) (Fc fusion)”, for which the results for the Kd in test [5] and in test [6] were 127 µM and 230 µM, respectively.
